The values that follow come from patent US20220098287A1 (Teva, published 2022).

Where no end group is shown, it is not given here.

The test concerns the target T1, antibody G1 Fab fragment.
T1 construct: also called TEV-48125; fremanezumab
Put plainly: SPR (Biacore) competition: 50 nM G1 Fab pre-incubated 1 h with 10 µM competing peptide, then flowed over N-biotinylated human α-CGRP on SA chip. An excerpt: Y axis represents percentage of binding blocked by the presence of the competing peptide compared with the binding in the absence of the competing peptide.
All these peptides are amidated at the C-terminus.
For orientation: SPR reads the build-up and loss of mass on a sensor chip optically.

T1 sequence (VH, as listed by the source, chain 1 of 2): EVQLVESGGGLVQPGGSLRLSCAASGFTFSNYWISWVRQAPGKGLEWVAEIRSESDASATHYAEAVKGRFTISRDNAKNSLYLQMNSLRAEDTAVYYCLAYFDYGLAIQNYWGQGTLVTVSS
T1 sequence (VL, as listed by the source, chain 2 of 2): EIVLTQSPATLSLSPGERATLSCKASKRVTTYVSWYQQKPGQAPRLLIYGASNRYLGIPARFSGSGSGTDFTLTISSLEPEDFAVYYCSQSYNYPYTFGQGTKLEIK

B1: 19-36 CONH2 (peptide)
peptide: SGGVVKNNFVPTNVGSKA-NH2
notes: also called peptide fragment 19-36 (amidated at the C-terminus) of human α-CGRP
B1: the binding result is listed as “no binding (tested: 10 µM)”.
